Results published in article PMC5785985, “Molecular snapshots of APE1 proofreading mismatches and removing DNA damage”.

Legend:
APE1 (ΔAPE1 C138A) [1] = molecular target: T1, APE1 (ΔAPE1 C138A) (Homo sapiens, UniProt P27695 44-318, C138A); assay: X-ray crystallography (2.3 Å); MgCl2 soak 2.5 h, no metal resolved; Crystallization: 7-14% PEG 20K, 100 mM sodium citrate pH 5.0, 15% glycerol, 5 mM CaCl2, 20 °C; 0.56 mM DNA, 10-12 mg/ml APE1; data at 100 K; settings: protein: recombinant; 1-nt gapped duplex, three strands, blunt ends
T1 sequence (P27695 44-318 C138A): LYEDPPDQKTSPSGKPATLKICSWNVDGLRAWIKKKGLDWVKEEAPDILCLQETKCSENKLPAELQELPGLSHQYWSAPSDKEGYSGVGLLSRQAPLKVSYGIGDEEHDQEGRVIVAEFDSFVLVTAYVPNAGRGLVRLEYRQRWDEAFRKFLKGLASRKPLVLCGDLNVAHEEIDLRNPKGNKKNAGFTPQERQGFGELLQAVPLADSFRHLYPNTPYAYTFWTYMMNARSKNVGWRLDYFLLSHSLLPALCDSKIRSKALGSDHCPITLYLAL

[2] = molecular target: APE1 F266A (ΔAPE1 C138A F266A) (Homo sapiens, UniProt P27695 44-318, C138A;F266A); assay: X-ray crystallography; Crystallization: 7-14% PEG 20K, 100 mM sodium citrate pH 5.0, 15% glycerol, 5 mM CaCl2, 20 °C; 0.56 mM DNA, 10-12 mg/ml APE1; data at 100 K; settings: protein: recombinant; nicked duplex, three strands 1:1:1, blunt ends, C/T mismatch at 3' end of nick
Chain of APE1 F266A (ΔAPE1 C138A F266A) (P27695 44-318 C138A/F266A): as the sequence (P27695 44-318 C138A) above, with F223A counted along it

APE1 (ΔAPE1 C138A) [3] = molecular target: T1, APE1 (ΔAPE1 C138A); assay: X-ray crystallography; 5 mM CaCl2, no metal resolved; Crystallization: 7-14% PEG 20K, 100 mM sodium citrate pH 5.0, 15% glycerol, 5 mM CaCl2, 20 °C; 0.56 mM DNA, 10-12 mg/ml APE1; data at 100 K; settings: protein: recombinant; nicked duplex, three strands 1:1:1, blunt ends, C/T mismatch at 3' end of nick
APE1 (ΔAPE1 C138A) [4] = molecular target: T1, APE1 (ΔAPE1 C138A); assay: X-ray crystallography (2.10 Å); no metal resolved; Crystallization: 7-14% PEG 20K, 100 mM sodium citrate pH 5.0, 15% glycerol, 5 mM CaCl2, 20 °C; 0.56 mM DNA, 10-12 mg/ml APE1; data at 100 K; settings: protein: recombinant; nicked duplex, three strands 1:1:1, blunt ends, C/T mismatch at 3' end of nick
APE1 (ΔAPE1 C138A) [5] = molecular target: T1, APE1 (ΔAPE1 C138A); assay: X-ray crystallography (2.6 Å); Crystallization: 7-14% PEG 20K, 100 mM sodium citrate pH 5.0, 15% glycerol, 5 mM CaCl2, 20 °C; 0.56 mM DNA, 10-12 mg/ml APE1; data at 100 K; settings: protein: recombinant; nicked duplex, three strands 1:1:1, blunt ends, fully paired

B1: 21-mer duplex with 1-nt gap (exo product) (dsDNA)
DNA 1: GGATCCGTCGATCGCATCAGC
DNA 2: GCTGATGCG
DNA 3: TCGACGGATCC
modifications: 5'-phosphate on strand 3; 3'-OH on strand 2
binding result (APE1 (ΔAPE1 C138A) [1]): binds

B2: 21-mer nicked duplex, 3' C/T mismatch (F266A crystal) (dsDNA)
DNA 1: GGATCCGTCGATCGCATCAGC
DNA 2: GCTGATGCGC
DNA 3: TCGACGGATCC
modifications: 5'-phosphate on strand 3; phosphorothioate not stated for this crystal
binding result [2]: binds

B3: 21-mer nicked duplex, 3' C/T mismatch (dsDNA)
DNA 1: GGATCCGTCGATCGCATCAGC
DNA 2: GCTGATGCGC
DNA 3: TCGACGGATCC
modifications: 5'-phosphate on strand 3
binding result (APE1 (ΔAPE1 C138A) [3]): binds

B4: 21-mer nicked duplex, 3' C/T mismatch, phosphorothioate (dsDNA)
DNA 1: GGATCCGTCGATCGCATCAGC
DNA 2: GCTGATGCGC
DNA 3: TCGACGGATCC
modifications: phosphorothioate 5' to the 3'-terminal C of strand 2 (Sp and Rp); 5'-phosphate on strand 3
binding result (APE1 (ΔAPE1 C138A) [4]): binds

B5: 21-mer nicked duplex, 3' C/G match (dsDNA)
DNA 1: GGATCCGTCGAGCGCATCAGC
DNA 2: GCTGATGCGC
DNA 3: TCGACGGATCC
modifications: 5'-phosphate on strand 3
binding result (APE1 (ΔAPE1 C138A) [5]): binds
